Measured values taken from patent US20090053196.

T1: myc-tagged UFD-2 (^mycUFD-2), Q09349
T1 chain: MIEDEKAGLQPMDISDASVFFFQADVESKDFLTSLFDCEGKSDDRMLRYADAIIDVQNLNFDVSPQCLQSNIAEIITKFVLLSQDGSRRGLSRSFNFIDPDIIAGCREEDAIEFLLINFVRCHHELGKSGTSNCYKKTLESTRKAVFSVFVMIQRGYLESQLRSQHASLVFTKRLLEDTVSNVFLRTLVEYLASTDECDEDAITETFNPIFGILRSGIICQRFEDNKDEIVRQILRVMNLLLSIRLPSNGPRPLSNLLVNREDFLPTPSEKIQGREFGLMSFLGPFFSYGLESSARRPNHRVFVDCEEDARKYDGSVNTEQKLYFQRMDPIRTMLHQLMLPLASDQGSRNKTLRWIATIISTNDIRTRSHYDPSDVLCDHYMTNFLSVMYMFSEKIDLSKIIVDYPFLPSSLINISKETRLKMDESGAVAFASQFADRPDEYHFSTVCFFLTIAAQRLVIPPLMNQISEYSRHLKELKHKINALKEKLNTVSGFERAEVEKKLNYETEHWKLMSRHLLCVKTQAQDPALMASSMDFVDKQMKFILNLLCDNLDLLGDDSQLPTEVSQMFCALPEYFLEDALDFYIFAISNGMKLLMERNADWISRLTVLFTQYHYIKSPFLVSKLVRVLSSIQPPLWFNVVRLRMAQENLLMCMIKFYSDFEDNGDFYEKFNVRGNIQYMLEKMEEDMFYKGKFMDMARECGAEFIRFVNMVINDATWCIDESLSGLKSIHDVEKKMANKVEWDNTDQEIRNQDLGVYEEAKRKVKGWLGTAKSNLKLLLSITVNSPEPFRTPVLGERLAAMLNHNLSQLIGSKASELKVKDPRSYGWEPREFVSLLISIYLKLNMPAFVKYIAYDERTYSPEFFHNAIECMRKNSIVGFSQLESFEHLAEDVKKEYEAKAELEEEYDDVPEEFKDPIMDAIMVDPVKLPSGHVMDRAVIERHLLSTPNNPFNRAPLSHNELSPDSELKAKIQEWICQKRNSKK

B1: myc-tagged CHN-1 (^mycCHN-1) (protein)
chain: MSSGAEQHNTNGKKCYMNKRYDDAVDHYSKAIKVNPLPKYYQNRAMCYFQLNNLKMTEEDCKRALELSPNEVKPLYFLGNVFLQSKKYSEAISCLSKALYHNAVITNAPDIENALKRARHQKYEEEESKRIVQDVEFHTYLESLIEKDRQENSENPEELQRADMAKKRLTELTLATQEKRQNREVPEMLCGKITLELMKEPVIVPSGITYDREEIVQHLRRIGHFDPVTRKPLTENEIIPNYALKEVIEKFLDDNPWAKYEPGGMV
B2: myc-tagged UFD-2 (^mycUFD-2) (protein)
chain: T1 chain

Tests used:
[1] = target: T1, myc-tagged UFD-2 (^mycUFD-2), Q09349
[2] = target: FLAG-tagged UNC-45 (UNC-45^FLAG)

Row | Protein | in vitro multiubiquitylation of UNC-45 with both enzymes present, Western blot [1] | in vitro ubiquitylation of UNC-45 (with E1 and the E2 LET-70), Western blot [2]
1 | B1 | these enzymes together dramatically stimulated the multiubiquitylation reaction, yielding UNC-45 conjugates with significantly longer chains than those conjugated by CHN-1 or UFD-2 alone | the addition of full-length CHN-1 proceeds to efficient ubiquitin conjugation. However, the majority of conjugates appeared to contain only one to three ubiquitin moieties
2 | B2 | – | addition of one to three ubiquitins to the substrate protein UNC-45
